The text below walks through data of article doi:10.1101/2025.02.24.639257.

Assay in all cases: TIRF microscopy binding assay
Experiment [1] deals with porcine double-stabilized microtubules (dsMTs) (porcine) (UniProt P02550).
Experiment [2] shares this target. The source holds these as a separate data set.
Experiment [3] has as its target AspN-treated double-stabilized microtubules (β-tubulin C-tail removed) (porcine) (UniProt P02550).

Where two headings read alike, the source gives them in different places.

Take “human TTLL11 I594W mutant (from UniProt Q8NHH1 1-710) (enzyme)”: the values for the percent reduction of the fluorescence signal (against full-length TTLL11) in experiment [1] and in experiment [2] were 80% and 95%, respectively.

“human TTLL11 R601E mutant (from UniProt Q8NHH1 1-710) (enzyme)” yielded a percent reduction of the fluorescence signal (against full-length TTLL11) in experiment [1] of 60%.

B1: human TTLL11 (tubulin tyrosine ligase-like 11), full length (enzyme)
chain: MRRGSSESELAARWEAEAVAAAKAAAKAEAEATAETVAEQVRVDAGAAGEPECKAGEEQPKVLAPAPAQPSAAEEGNTQVLQRPPPTLPPSKPKPVQGLCPHGKPRDKGRSCKRSSGHGSGENGSQRPVTVDSSKARTSLDALKISIRQLKWKEFPFGRRLPCDIYWHGVSFHDNDIFSGQVNKFPGMTEMVRKITLSRAVRTMQNLFPEEYNFYPRSWILPDEFQLFVAQVQMVKDDDPSWKPTFIVKPDGGCQGDGIYLIKDPSDIRLAGTLQSRPAVVQEYICKPLLIDKLKFDIRLYVLLKSLDPLEIYIAKDGLSRFCTEPYQEPTPKNLHRIFMHLTNYSLNIHSGNFIHSDSASTGSKRTFSSILCRLSSKGVDIKKVWSDIISVVIKTVIALTPELKVFYQSDIPTGRPGPTCFQILGFDILLMKNLKPILLEVNANPSMRIEHEHELSPGVFENVPSLVDEEVKVAVIRDTLRLMDPLKKKRENQSQQLEKPFAGKEDALDGELTSAPDCNANPEAHLPSICLKQVFPKYAKQFNYLRLVDRMANLFIRFLGIKGTMKLGPTGFRTFIRSCKLSSSSLSMAAVDILYIDITRRWNSMTLDQRDSGMCLQAFVEAFFFLAQRKFKMLPLHEQVASLIDLCEYHLSLLDEKRLVCGRGVPSGGRPPHRGPPQEPSPSAQPAGDNPPPRTSCANKLSHPRHTLS
modifications: Janelia 549-HALO probe on the HALO tag (in the TIRF assay)
In turn, B1 had a percent lower fluorescence signal than on intact MTs in experiment [3] of 50%.
